This note sets out measurements from article doi:10.1101/787473, “C9orf72 arginine-rich dipeptide repeat proteins disrupt importin β-mediated nuclear import” (bioRxiv, 2019).

Conditions in all cases: both partners purified
Assay [1] deals with T1, GST-tagged S. cerevisiae Nup100(1-307) (S. cerevisiae, UniProt Q02629 1-307).
T1 construct: Nup100, S. cerevisiae, residues 1-307 (GLFG domain fragment); Bait on glutathione beads; also called FG-domains of Nup100; Nup100 fragments; source: E. coli T7 Shuffle, purified (glutathione-sepharose)
T1 sequence (Q02629 1-307): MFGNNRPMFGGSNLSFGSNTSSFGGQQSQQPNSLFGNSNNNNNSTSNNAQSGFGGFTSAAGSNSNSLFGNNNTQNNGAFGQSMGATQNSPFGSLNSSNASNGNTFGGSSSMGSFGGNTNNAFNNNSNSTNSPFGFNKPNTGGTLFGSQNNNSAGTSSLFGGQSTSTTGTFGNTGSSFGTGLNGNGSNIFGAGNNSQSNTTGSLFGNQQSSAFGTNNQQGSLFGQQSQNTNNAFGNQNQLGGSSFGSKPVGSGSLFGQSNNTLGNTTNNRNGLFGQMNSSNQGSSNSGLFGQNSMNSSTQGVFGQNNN
Nature of the assay: bead halo assay; GST-fusion yeast FG- and GLFG-domain baits on glutathione beads; AF488-labeled DPRs in binding buffer, without added importin β; rim vs. background ratio against the Nup116 F>A mutant.

The target of assay [2] is T2, GST-tagged S. cerevisiae Nup100(1-610) (S. cerevisiae, UniProt Q02629 1-610).
T2 construct: Nup100, S. cerevisiae, residues 1-610 (GLFG domain fragment); Bait on glutathione beads; also called FG-domains of Nup100; Nup100 fragments; source: E. coli T7 Shuffle, purified (glutathione-sepharose)
T2 sequence (Q02629 1-610): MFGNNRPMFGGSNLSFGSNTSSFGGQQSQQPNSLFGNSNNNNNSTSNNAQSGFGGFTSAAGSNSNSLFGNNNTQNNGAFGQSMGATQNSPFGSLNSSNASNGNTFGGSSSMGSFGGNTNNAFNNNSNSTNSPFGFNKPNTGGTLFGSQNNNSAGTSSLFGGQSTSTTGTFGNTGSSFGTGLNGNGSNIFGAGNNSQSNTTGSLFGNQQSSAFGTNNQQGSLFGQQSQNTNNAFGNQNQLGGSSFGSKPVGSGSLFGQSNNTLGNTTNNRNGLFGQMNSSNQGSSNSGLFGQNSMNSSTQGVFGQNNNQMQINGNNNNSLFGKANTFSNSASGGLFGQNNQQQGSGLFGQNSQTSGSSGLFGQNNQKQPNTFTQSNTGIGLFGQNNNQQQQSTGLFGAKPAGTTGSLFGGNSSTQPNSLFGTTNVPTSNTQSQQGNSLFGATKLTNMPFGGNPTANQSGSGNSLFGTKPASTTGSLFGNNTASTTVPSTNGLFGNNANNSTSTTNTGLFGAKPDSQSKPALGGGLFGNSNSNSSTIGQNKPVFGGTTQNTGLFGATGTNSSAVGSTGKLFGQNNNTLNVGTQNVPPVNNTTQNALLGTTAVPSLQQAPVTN
The assay is described as above.

Assay [3] addresses T3, biotinylated WT importin β-Avitag (pKW1982; pK1099) (human, UniProt Q14974 1-876, biotin on the Avitag (co-expressed biotin ligase, 100 µM D-biotin)).
T3 construct: importin β (KPNB1), human, wild type; called full-length in the results of the bead halo assay; Immobilised on neutravidin beads by the biotinylated Avitag; also called biotinylated importin β; full-length importin β-coated beads; source: E. coli BL21DE3 co-transfected with pAC-biotin ligase, purified (Ni-NTA)
Nature of the assay: bead halo assay; biotinylated bait (importin β-Avitag or BSA) on neutravidin beads; fluorescent prey (AF488-DPR 200 nM, Rango) in binding buffer (20 mM HEPES pH 7.4, 150 mM KOAc, 2 mM Mg(OAc)2, 1 mM DTT, 0.1% Tween-20) with EHBN; room temperature, at least 30 min; confocal rim vs. background ratio.

Assay [4] has as its target T4, full length human importin β (KPNB1), expressed from pET30a-WT Importin β (pKW485) (human, UniProt Q14974 1-876).
T4 construct: importin β (KPNB1), human, wild type, full length; also called unlabeled importin β
Nature of the assay: FRET or BRET; displacement of importin β from the Rango FRET sensor in solution: 20 nM Rango + 50 nM importin β in TBS pH 7.4, 0.005% Tween-20, increasing concentrations of DPR 10-mers or ZZ-RanQ69L-GTP; acceptor/donor emission ratio, fit to one-site binding model.

No end group written: not given here.

T4 sequence (Q14974 whole entry): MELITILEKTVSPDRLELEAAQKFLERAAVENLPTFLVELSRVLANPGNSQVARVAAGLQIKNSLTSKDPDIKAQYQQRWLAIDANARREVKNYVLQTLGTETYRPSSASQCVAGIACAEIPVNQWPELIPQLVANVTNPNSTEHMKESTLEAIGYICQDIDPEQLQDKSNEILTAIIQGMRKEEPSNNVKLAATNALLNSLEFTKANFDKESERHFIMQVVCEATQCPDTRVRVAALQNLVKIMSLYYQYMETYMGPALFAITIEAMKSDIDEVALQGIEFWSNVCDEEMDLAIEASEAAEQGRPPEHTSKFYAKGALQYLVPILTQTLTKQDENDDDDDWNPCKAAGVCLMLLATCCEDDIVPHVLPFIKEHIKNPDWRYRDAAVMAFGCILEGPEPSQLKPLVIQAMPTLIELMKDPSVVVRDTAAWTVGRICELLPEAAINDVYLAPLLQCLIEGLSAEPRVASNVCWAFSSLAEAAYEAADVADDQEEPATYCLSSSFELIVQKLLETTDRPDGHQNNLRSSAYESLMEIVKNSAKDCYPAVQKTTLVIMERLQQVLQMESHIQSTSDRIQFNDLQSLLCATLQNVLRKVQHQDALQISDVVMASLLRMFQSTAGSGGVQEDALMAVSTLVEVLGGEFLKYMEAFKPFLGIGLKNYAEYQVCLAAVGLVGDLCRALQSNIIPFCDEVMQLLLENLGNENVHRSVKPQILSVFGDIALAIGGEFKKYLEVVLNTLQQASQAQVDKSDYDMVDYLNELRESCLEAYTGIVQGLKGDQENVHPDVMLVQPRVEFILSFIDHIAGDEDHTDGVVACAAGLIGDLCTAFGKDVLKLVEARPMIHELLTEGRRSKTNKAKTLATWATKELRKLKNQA
T3 sequence (Q14974 whole entry): as above

B1: AF488-labeled PR10 (peptide)
peptide: PRPRPRPRPRPRPRPRPRPRKC(Alexa Fluor 488 C5‑maleimide)
notes: C9orf72 poly-PR dipeptide repeat, ten repeats, with C-terminal K and C; also called AF488-PR10; AF488-labeled R-DPR; source: synthetic peptide (Genscript)
Regarding B1, the binding result in assay [1] and in assay [2] was “binds” in each case. For the same molecule, the “halo intensity (rim vs. background) against control beads” value in assay [3] was roughly 2 fold.

B2: PR10, synthetic poly-proline-arginine 10-mer dipeptide repeat protein with C-terminal lysine and cysteine (peptide)
peptide: PRPRPRPRPRPRPRPRPRPRKC
notes: C9orf72 poly-PR dipeptide repeat, ten repeats, with C-terminal K (solubility) and C (labelling); Unlabelled peptide; The C-terminal KC was added by the authors; also called R-DPR; source: synthetic peptide (Genscript; 21st Century Biochemicals)
Take B2: in assay [4], the binding result is on record as “binds”.

B3: GR10, synthetic poly-glycine-arginine 10-mer dipeptide repeat protein with C-terminal lysine and cysteine (peptide)
peptide: GRGRGRGRGRGRGRGRGRGRKC
notes: C9orf72 poly-GR dipeptide repeat, ten repeats, with C-terminal K (solubility) and C (labelling); Unlabelled peptide; The C-terminal KC was added by the authors; also called poly-GR; R-DPR; source: synthetic peptide (Genscript; 21st Century Biochemicals)
With B3, the binding result in assay [4] is “binds”.

B4: AF488-labeled GR10 (peptide)
peptide: GRGRGRGRGRGRGRGRGRGRKC(Alexa Fluor 488 C5‑maleimide)
notes: C9orf72 poly-GR dipeptide repeat, ten repeats, with C-terminal K and C; also called AF488-GR10; AF488-labeled R-DPR; source: synthetic peptide (Genscript)
Consider B4, for which the binding result in assay [1] and in assay [2] was “binds” in each case. Also, the “halo intensity (rim vs. background) against control beads” value in assay [3] was roughly 2 fold.
